Laboratory results published in patent US20140087995A1 (published 2014).
Numbered stars: 1 amine (or outer) side, 2 acyl side, 3 side chain; on linkers, the order of the positions; unused ones are H or OH. Bridge positions count the residues as written; N and C are the ends. Side chains are listed from the residue outwards. Ends that are not written are not given here. * marks the point of attachment. C20 diacid = O=C(O)CCCCCCCCCCCCCCCCCCC(=O)*; γGlu = O=C(O)[C@H](CCC(=O)[*:2])N[*:1]; AEEA = NCCOCCOCC(=O)O

Experiments:
[1] = biological target: T1, human amylin 3(a) receptor (human calcitonin receptor co-expressed with RAMP-3) (human, UniProt P30988 25-474; O60896 24-148, limits assumed); experiment: cell-based or functional assay
T1 sequence (looked up) 1: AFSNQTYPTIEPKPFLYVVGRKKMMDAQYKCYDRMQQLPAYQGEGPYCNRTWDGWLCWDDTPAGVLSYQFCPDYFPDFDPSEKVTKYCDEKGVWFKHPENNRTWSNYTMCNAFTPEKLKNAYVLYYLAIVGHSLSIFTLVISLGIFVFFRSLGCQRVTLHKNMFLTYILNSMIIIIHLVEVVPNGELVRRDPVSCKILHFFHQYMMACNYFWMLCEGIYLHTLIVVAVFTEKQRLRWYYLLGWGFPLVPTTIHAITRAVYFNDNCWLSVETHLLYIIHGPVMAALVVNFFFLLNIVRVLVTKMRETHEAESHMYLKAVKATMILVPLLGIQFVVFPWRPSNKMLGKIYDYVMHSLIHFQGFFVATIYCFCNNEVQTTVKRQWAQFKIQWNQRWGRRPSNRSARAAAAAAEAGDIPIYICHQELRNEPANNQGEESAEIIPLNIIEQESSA
T1 sequence (looked up) 2: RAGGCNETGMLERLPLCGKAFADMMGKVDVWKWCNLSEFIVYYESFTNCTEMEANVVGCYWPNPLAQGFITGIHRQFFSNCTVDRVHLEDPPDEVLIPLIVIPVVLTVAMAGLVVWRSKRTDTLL

[2] = biological target: T2, human calcitonin receptor (human, UniProt P30988 25-474); experiment: cell-based or functional assay
T2 sequence (looked up): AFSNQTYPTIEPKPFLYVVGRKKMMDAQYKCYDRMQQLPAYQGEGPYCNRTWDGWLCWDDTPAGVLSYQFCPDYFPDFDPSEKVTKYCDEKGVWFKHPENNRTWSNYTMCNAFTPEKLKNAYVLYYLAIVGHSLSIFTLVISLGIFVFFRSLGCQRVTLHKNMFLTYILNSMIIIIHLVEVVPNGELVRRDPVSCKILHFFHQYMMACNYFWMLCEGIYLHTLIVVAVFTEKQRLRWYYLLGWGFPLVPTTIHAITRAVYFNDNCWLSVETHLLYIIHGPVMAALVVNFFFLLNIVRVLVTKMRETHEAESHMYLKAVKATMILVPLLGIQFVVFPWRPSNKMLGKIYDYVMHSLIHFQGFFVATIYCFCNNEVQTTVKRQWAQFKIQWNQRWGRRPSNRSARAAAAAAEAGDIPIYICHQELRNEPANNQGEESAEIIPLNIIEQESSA

B1: N^ε1-[2-[2-[2-[[2-[2-[2-[[(4S)-4-carboxy-4-(19-carboxynonadecanoylamino)butanoyl]amino]ethoxy]ethoxy]acetyl]amino]ethoxy]ethoxy]acetyl]-[Arg17,Pro21,Pro27,Pro34 … (peptide)
peptide: K([AEEA-AEEA-γGlu-C20 diacid])CNTATCATQRLANFLRHSSPNFGAIPSSTNVGPNTY-NH2
modifications: disulfide 2-7; N-terminus assumed
SMILES: CC[C@H](C)[C@H](NC(=O)[C@H](C)NC(=O)CNC(=O)[C@H](Cc1ccccc1)NC(=O)[C@H](CC(N)=O)NC(=O)[C@@H]1CCCN1C(=O)[C@H](CO)NC(=O)[C@H](CO)NC(=O)[C@H](Cc1c[nH]cn1)NC(=O)[C@H](CCCNC(=N)N)NC(=O)[C@H](CC(C)C)NC(=O)[C@H](Cc1ccccc1)NC(=O)[C@H](CC(N)=O)NC(=O)[C@H](C)NC(=O)[C@H](CC(C)C)NC(=O)[C@H](CCCNC(=N)N)NC(=O)[C@H](CCC(N)=O)NC(=O)[C@@H](NC(=O)[C@H](C)NC(=O)[C@@H]1CSSC[C@H](NC(=O)[C@@H](N)CCCCNC(=O)COCCOCCNC(=O)COCCOCCNC(=O)CC[C@H](NC(=O)CCCCCCCCCCCCCCCCCCC(=O)O)C(=O)O)C(=O)N[C@@H](CC(N)=O)C(=O)N[C@@H]([C@@H](C)O)C(=O)N[C@@H](C)C(=O)N[C@@H]([C@@H](C)O)C(=O)N1)[C@@H](C)O)C(=O)N1CCC[C@H]1C(=O)N[C@@H](CO)C(=O)N[C@@H](CO)C(=O)N[C@H](C(=O)N[C@@H](CC(N)=O)C(=O)N[C@H](C(=O)NCC(=O)N1CCC[C@H]1C(=O)N[C@@H](CC(N)=O)C(=O)N[C@H](C(=O)N[C@@H](Cc1ccc(O)cc1)C(N)=O)[C@@H](C)O)C(C)C)[C@@H](C)O
notes: also called compound 98
hAmylin-R funct. EC50 [1]: 0.084 nM | Ratio hCT/hAmylin funct. [2]: 19.5 | hCTR funct. EC50 [2]: 1.63 nM

B2: N^ε1-[2-[2-[2-[[(4S)-4-carboxy-4-(19-carboxynonadecanoylamino)butanoyl]amino]ethoxy]ethoxy]acetyl]-[Arg14,Arg17,Pro21,Pro27]-h-amylin (peptide)
peptide: K([AEEA-γGlu-C20 diacid])CNTATCATQRLARFLRHSSPNFGAIPSSTNVGSNTY-NH2
modifications: disulfide 2-7; N-terminus assumed
SMILES: CC[C@H](C)[C@H](NC(=O)[C@H](C)NC(=O)CNC(=O)[C@H](Cc1ccccc1)NC(=O)[C@H](CC(N)=O)NC(=O)[C@@H]1CCCN1C(=O)[C@H](CO)NC(=O)[C@H](CO)NC(=O)[C@H](Cc1c[nH]cn1)NC(=O)[C@H](CCCNC(=N)N)NC(=O)[C@H](CC(C)C)NC(=O)[C@H](Cc1ccccc1)NC(=O)[C@H](CCCNC(=N)N)NC(=O)[C@H](C)NC(=O)[C@H](CC(C)C)NC(=O)[C@H](CCCNC(=N)N)NC(=O)[C@H](CCC(N)=O)NC(=O)[C@@H](NC(=O)[C@H](C)NC(=O)[C@@H]1CSSC[C@H](NC(=O)[C@@H](N)CCCCNC(=O)COCCOCCNC(=O)CC[C@H](NC(=O)CCCCCCCCCCCCCCCCCCC(=O)O)C(=O)O)C(=O)N[C@@H](CC(N)=O)C(=O)N[C@@H]([C@@H](C)O)C(=O)N[C@@H](C)C(=O)N[C@@H]([C@@H](C)O)C(=O)N1)[C@@H](C)O)C(=O)N1CCC[C@H]1C(=O)N[C@@H](CO)C(=O)N[C@@H](CO)C(=O)N[C@H](C(=O)N[C@@H](CC(N)=O)C(=O)N[C@H](C(=O)NCC(=O)N[C@@H](CO)C(=O)N[C@@H](CC(N)=O)C(=O)N[C@H](C(=O)N[C@@H](Cc1ccc(O)cc1)C(N)=O)[C@@H](C)O)C(C)C)[C@@H](C)O
notes: also called compound 82
hAmylin-R funct. EC50 [1]: 0.215 nM | Ratio hCT/hAmylin funct. [2]: 59.2 | hCTR funct. EC50 [2]: 12.7 nM
